Peptide text beside a SMILES is read from it.

The record followed here is US20220174981A1, “PROLINE TOLERANT TRIPEPTIDYL PEPTIDASES AND USES THEREOF” (DuPont Nutrition Biosciences APS, priority 2014, published 2022).

What all share (type): biochemical
Series [1] addresses T1, T. reesei proline tolerant tripeptidyl peptidase TRI083 (SEQ ID No. 1, SEQ ID No. 2 or SEQ ID No. 29) (Trichoderma reesei, UniProt G0RXE9).
T1 sequence (G0RXE9 198-612): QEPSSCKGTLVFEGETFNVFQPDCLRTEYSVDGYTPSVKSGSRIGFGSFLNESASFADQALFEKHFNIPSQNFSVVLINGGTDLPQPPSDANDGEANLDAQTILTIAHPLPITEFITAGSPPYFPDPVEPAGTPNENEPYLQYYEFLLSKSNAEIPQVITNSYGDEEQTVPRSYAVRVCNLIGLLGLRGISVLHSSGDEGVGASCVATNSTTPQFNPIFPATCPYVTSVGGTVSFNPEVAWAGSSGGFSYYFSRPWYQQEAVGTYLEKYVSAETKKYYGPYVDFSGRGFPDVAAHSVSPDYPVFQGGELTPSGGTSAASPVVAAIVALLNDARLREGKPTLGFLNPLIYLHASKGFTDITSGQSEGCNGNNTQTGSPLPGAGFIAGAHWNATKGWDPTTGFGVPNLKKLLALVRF
In words: Product inhibition of proline tolerant tripeptidyl peptidase TRI083 with H-Ala-Ala-Ala-pNA as substrate. To be noted: competitive inhibitor fit; substrate Ala-Ala-Ala-pNA (0-2000 nM); McIlvaine buffer pH 4.0, 50° C.; tripeptide at 3.6 mM, dipeptide at 18 mM. On the procedure:
For proline tolerant tripeptidyl peptidase the chromogenic peptide H-Ala-Ala-Ala-pNA was used. The assay was conducted as follows, 27.5 μL of appropriately diluted enzyme was added to 200 μl McIlvaine buffer (20 mM, pH 4.0). After incubation at 50° C. for 5 min, 12.5 μL of the chromogenic peptide solution (5 mg/mL dissolved in dimethyl sulfoxide (DMSO); Sigma-Aldrich, Denmark) were added to the reaction mixture. The reaction was terminated by adding 50 μL of 0.5 M trichloroacetic acid (TCA; Sigma-Aldrich, Denmark). After centrifugation (15,000×g, 5 min), 240 μL of the solution were transferred to a microtiter plate (MTP; Kisker-biotech, Germany) and the absorption was measured in an MTP reader (Molecular Devices, Denmark) at 405 nm. One katal of proteolytic activity was defined as the amount of enzyme required to release 1 mol of p-nitroaniline per second. […]
The inhibition experiments were set up as described in Example 14. […] The degree of pre-hydrolysis of H-Ala-Ala-Ala-OH was determined by gas chromatography (Husek, 1991; FEBS-Letters 280, 354-356). About 0.18 mg/mL alanine was measured, which corresponds to about 54% hydrolyses of the initially applied H-Ala-Ala-Ala-OH.
Subsequently, TRI083 was analyzed for product inhibition without inhibitor, with 1 mg/mL H-Ala-Ala-Ala-OH as well with the PepN pre-hydrolyzed H-Ala-Ala-Ala-OH (1 mg/mL).

The subject of series [2] is whey protein (WPI, Lacprodan-9224). As to the kind of experiment: Hydrolysis of 20% whey protein (WPI) with Alphalase FP2 and TRI083, OPA degree of hydrolysis. To be noted: FP2 0.0%. On the procedure: For whey protein hydrolysis, Lacprodan-9224 (Arla Food Ingredients, Denmark) was employed. A 20% (w/w) WPI suspension was prepared in H2Od and adjusted to pH 4.0 with acetic acid (Sigma-Aldrich, Denmark). To prevent microbial growth, 0.0285% (w/w) NaN3 was added. A volume of 200 μl of the WPI suspension was transferred into each of the 96 wells of a microtiter plate (MTP; VWR, Denmark). Subsequently, 5 μl of each consecutively diluted peptidase, Alphalase® FP2 and proline tolerant tripeptidyl peptidase (3PP=TRI083; 0-8750 nkat H-Ala-Ala-Ala-pNA/mL activity in stock solution added), were added to each well, resulting in dosages as shown in Table 1. The MTP was sealed and placed in an EMS incubator/shaker (Thermo Scientific, Denmark) at 40° C. After 24 h of incubation and shaking at 400 rpm, the hydrolyses were stopped by addition of 20 μl of 2 M trichloroacetic acid (TCA; Sigma-Aldrich, Denmark). As a reference, a plain 20% WPI (w/w) suspension was used which was treated in the same manner as the WPI hydrolyses. Unhydrolysed, precipitated WPI was removed by filtration (0.22 μm). On the filtered WPI hydrolysate o-phthaldehyde (OPA) derivatization was conducted according to Nielsen et al. (2001) with minor modifications. A sample volume of 25 μl was transferred to a well and 175 μl of OPA-reagent, dissolved in phosphate buffer pH 11, was added subsequently. The measured absorptions at 340 nm in an MTP reader (Molecular Devices, Denmark) were transformed into the relative degree of hydrolysis (DH) in per cent.
A 20% (w/w) WPI suspension hydrolysed in 6 M HCl (Sigma-Aldrich, Denmark) at 100° C. for 24 h served as reference (100% DH).

For another series, the system named is sodium caseinate. As to the kind of experiment: 5% sodium caseinate hydrolysis with endopeptidase, TRI083 and PepN, serine equivalents. To be noted: 17,500 nkat/mL TRI083.
In a further series the test system is H-Ala-Ala-Ala-pNA. In words: Exopeptidase Broad-Specificity Assay (EBSA) with H-Ala-Ala-Ala-pNA; pH and temperature profile. On the procedure:
10 μL of the chromogenic peptide solution (10 mM H-Ala-Ala-Ala-pNA dissolved in dimethyl sulfoxide (DMSO); MW=387.82; Bachem, Switzerland) were added to 130 μl Na-acetate (20 mM, adjusted to pH 4.0 with acetic acid) in a microtiter plate and heated for 5 minutes at 40° C. 10 μL of appropriately diluted enzyme was added and the absorption was measured in a MTP reader (Versa max, Molecular Devices, Denmark) at 405 nm. One katal of proteolytic activity was defined as the amount of enzyme required to release 1 mole of p-nitroaniline per second.
The chromogenic peptide H-Ala-Ala-Ala-pNA (MW=387.82; Bachem, Switzerland) was used to determine the activity of proline tolerant tripeptidyl peptidase in the samples produced as described above. The assay was conducted as follows, 10 μL of the chromogenic peptide solution (10 mM dissolved in dimethyl sulfoxide; DMSO) were added to 130 μl Na-acetate (20 mM, adjusted to pH 4.0 with acetic acid) in a microtiter plate and heated for 5 minutes at 40° C. 10 μL of appropriately diluted enzyme was added and the absorption was measured in an MTP reader (Versa max, Molecular Devices, Denmark) at 405 nm. One katal of proteolytic activity was defined as the amount of enzyme required to release 1 mole of p-nitroaniline per second.
The proline tolerant tripeptidyl peptidase assay described with H-Ala-Ala-Ala-pNA substrate above with modification of using the buffers 20 mM Na-glycine (pH 2.0, 2.5, 3.0, 3.5 and 4.0) or 20 mM Na-acetate buffer (pH 4.0, 4.5 and 5.5) was used to determine the pH profile of proline tolerant tripeptidyl peptidase TRI083 (FIG. 2) and TRI045 (FIG. 24)..
The proline tolerant tripeptidyl peptidase assay described above was used at temperatures 25, 50, 55, 60, 65, 70, 75, 80 and 85° C.
For proline tolerant tripeptidyl peptidase the chromogenic peptide H-Ala-Ala-Ala-pNA was used. The assay was conducted as follows, 27.5 μL of appropriately diluted enzyme was added to 200 μl McIlvaine buffer (20 mM, pH 4.0). After incubation at 50° C. for 5 min, 12.5 μL of the chromogenic peptide solution (5 mg/mL dissolved in dimethyl sulfoxide (DMSO); Sigma-Aldrich, Denmark) were added to the reaction mixture. The reaction was terminated by adding 50 μL of 0.5 M trichloroacetic acid (TCA; Sigma-Aldrich, Denmark). After centrifugation (15,000×g, 5 min), 240 μL of the solution were transferred to a microtiter plate (MTP; Kisker-biotech, Germany) and the absorption was measured in an MTP reader (Molecular Devices, Denmark) at 405 nm. One katal of proteolytic activity was defined as the amount of enzyme required to release 1 mol of p-nitroaniline per second.

Turning to `C[C@H](N)C(=O)N[C@@H](C)C(=O)N[C@@H](C)C(=O)O` [H-Ala-Ala-Ala-OH], in series [1], the Ki was found to be 0.34 mM.

In the case of `C[C@H](N)C(=O)N[C@@H](C)C(=O)O` [H-Ala-Ala-OH] (H-Ala-Ala-OH), the affinity in series [1], expressed as Ki, was 40 mM.

B1: TRI083: proline tolerant tripeptidyl peptidase (SEQ ID No. 1, SEQ ID No. 2 or SEQ ID No. 29), expressed in Trichoderma reesei (protein)
chain: QEPSSCKGTLVFEGETFNVFQPDCLRTEYSVDGYTPSVKSGSRIGFGSFLNESASFADQALFEKHFNIPSQNFSVVLINGGTDLPQPPSDANDGEANLDAQTILTIAHPLPITEFITAGSPPYFPDPVEPAGTPNENEPYLQYYEFLLSKSNAEIPQVITNSYGDEEQTVPRSYAVRVCNLIGLLGLRGISVLHSSGDEGVGASCVATNSTTPQFNPIFPATCPYVTSVGGTVSFNPEVAWAGSSGGFSYYFSRPWYQQEAVGTYLEKYVSAETKKYYGPYVDFSGRGFPDVAAHSVSPDYPVFQGGELTPSGGTSAASPVVAAIVALLNDARLREGKPTLGFLNPLIYLHASKGFTDITSGQSEGCNGNNTQTGSPLPGAGFIAGAHWNATKGWDPTTGFGVPNLKKLLALVRF
In the case of B1, the “Degree of hydrolysis of 20% (w/w) WPI” value in series [2] (TRI083 2,188 nkat/mL stock solution) is listed as 0.5%; in series [2] (TRI083 4,375 nkat/mL stock solution), −0.9%; in series [2] (TRI083 8,375 nkat/mL stock solution), 1.4%. In the series with sodium caseinate, the “increase of SE” value amounted to 18 mM. The “activity at 70° C. and higher temperatures” value in the series with H-Ala-Ala-Ala-pNA is “no activity”. Also, the “Optimum pH” value in the series with H-Ala-Ala-Ala-pNA (H-Ala-Ala-Ala-pNA, 20 mM Na-glycine pH 2.0-4.0 or Na-acetate pH 4.0-5.5) was found to be 4.0. The same molecule displayed an optimum temperature with H-Ala-Ala-Ala-pNA (tested at 25-85° C.) of 50 °C.

One may read the Ki as the dissociation constant of the complex between target and ligand, obtained from inhibition or displacement.
